Test results taken from paper PMC9126943, “ADAMTS4-specific MR probe to assess aortic aneurysms in vivo using synthetic peptide libraries” (Nature Communications, 2022).
Several values for one entry are separate records, joined by “and”; a condition that tells them apart may be missing. Identical values can stand only once. Where a SMILES comes first, the peptide text is derived from it. Bridges are numbered along the chain shown (N, C = ends). The star is where a group is joined. DOTA = O=C(O)CN1CCN(CC(=O)O)CCN(CC(=O)*)CCN(CC(=O)O)CC1

Columns and labels:
[1] = Gadolinium in the aortic wall by ICP-MS; type: in vivo, mouse; details: ICP-MS of digested aorta after probe administration; individual mice, n = 7
Description: The samples were dissolved with 12 ml ultrapure water.

[2] = target: T1, ADAMTS4 in the aortic wall of ApoE−/− mice (Mus musculus, UniProt Q8BNJ2); test: LA-ICP-MS spatial localization of Gd in the aortic wall; type: in vivo; details: 10 µm cryosections, n = 3 per time point
T1 construct: from tissue
T1 sequence (Q8BNJ2 209-833): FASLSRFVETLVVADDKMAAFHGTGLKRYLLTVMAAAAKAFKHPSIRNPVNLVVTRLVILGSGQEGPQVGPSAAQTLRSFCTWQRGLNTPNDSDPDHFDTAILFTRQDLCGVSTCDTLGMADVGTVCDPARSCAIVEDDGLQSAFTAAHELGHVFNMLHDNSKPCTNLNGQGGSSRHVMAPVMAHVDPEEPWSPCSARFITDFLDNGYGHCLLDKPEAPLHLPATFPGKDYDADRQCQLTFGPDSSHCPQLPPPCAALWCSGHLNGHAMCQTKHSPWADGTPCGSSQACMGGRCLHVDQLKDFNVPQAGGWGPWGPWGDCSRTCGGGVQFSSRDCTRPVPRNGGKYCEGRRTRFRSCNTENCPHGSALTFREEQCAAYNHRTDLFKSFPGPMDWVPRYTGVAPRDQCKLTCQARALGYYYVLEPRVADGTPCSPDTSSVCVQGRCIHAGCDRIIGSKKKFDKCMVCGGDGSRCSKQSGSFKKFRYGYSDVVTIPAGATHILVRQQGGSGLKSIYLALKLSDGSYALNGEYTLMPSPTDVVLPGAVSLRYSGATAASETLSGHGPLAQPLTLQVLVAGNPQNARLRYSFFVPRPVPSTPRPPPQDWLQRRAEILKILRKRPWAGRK
Description: Aortic tissues were cut into 10 µm cryosections at −20 °C and mounted on SuperFrost Plus adhesion slides (Thermo Scientific, Waltham, MA, USA). Laser ablation inductively coupled plasma mass spectrometry (LA-ICP-MS) analysis was performed on a commercial LA system (NWR-213, ESI, Bozeman, MT, USA) equipped with a two-volume sample chamber coupled to a sector field ICP-MS (Element XR, Thermo Fisher Scientific, Bremen, Germany) (Supplementary Table 6).
Helium was used as the carrier gas, and argon was added before reaching the torch using a Y-piece (Supplementary Table 7). The ICP-MS was tuned for maximum ion intensity and good signal stability (RSD < 5%), keeping the oxide ratio (ThO/Th) below 1% during the continuous ablation of a microscopic glass slide. Matrix-matched agarose gel standards cast on glass slides were used for drift control and calibration. These standards contain Gd concentrations between 26.6 pg mm^−2 and 600.1 pg mm^−2. Averaged intensities of six line-scans per standard were used for calibration. Data visualization was done in Origin 2022 (OriginLab Corporation, Northampton, MA).

[3] = Solubility (statement, no method); type: physicochemical; details: statement in the discussion

Compound: N=C(N)NCCC[C@@H]1NC(=O)[C@H](CCCNC(=N)N)NC(=O)[C@H](CO)NC(=O)[C@@H](N)CSSC[C@@H](C(=O)N[C@@H](CO)C(=O)NCC(=O)NCC(=O)N[C@@H](CO)C(=O)NCC(=O)NCC(=O)N[C@@H](CCCCNC(=O)CN2CCN(CC(=O)O)CCN(CC(=O)O)CCN(CC(=O)O)CC2)C(=O)NCC(N)=O)NC(=O)CNC1=O (Gd complex, metal not drawn) [ADAMTS4-specific probe] (H-CSRRGCSGGSGGK(DOTA)G-NH2; disulfide 1-6)
- Gd amount in the aortic wall [1]: 38.015 ng/kg and 35.695 ng/kg and 62.7086 ng/kg and 32.3631 ng/kg and 8.118 ng/kg and 16.4033 ng/kg and 11.8689 ng/kg
- colocalization of gadolinium with areas positive for ADAMTS4 [2]: strong colocalization
- solubility [3]: high solubility
